Biological target: T1, mN2G^SR (mini-nesprin-2G lacking the transmembrane KASH domain, with C-terminal sfGFP-6xHis) (mouse, UniProt Q6ZWQ0-1)
T1 chain: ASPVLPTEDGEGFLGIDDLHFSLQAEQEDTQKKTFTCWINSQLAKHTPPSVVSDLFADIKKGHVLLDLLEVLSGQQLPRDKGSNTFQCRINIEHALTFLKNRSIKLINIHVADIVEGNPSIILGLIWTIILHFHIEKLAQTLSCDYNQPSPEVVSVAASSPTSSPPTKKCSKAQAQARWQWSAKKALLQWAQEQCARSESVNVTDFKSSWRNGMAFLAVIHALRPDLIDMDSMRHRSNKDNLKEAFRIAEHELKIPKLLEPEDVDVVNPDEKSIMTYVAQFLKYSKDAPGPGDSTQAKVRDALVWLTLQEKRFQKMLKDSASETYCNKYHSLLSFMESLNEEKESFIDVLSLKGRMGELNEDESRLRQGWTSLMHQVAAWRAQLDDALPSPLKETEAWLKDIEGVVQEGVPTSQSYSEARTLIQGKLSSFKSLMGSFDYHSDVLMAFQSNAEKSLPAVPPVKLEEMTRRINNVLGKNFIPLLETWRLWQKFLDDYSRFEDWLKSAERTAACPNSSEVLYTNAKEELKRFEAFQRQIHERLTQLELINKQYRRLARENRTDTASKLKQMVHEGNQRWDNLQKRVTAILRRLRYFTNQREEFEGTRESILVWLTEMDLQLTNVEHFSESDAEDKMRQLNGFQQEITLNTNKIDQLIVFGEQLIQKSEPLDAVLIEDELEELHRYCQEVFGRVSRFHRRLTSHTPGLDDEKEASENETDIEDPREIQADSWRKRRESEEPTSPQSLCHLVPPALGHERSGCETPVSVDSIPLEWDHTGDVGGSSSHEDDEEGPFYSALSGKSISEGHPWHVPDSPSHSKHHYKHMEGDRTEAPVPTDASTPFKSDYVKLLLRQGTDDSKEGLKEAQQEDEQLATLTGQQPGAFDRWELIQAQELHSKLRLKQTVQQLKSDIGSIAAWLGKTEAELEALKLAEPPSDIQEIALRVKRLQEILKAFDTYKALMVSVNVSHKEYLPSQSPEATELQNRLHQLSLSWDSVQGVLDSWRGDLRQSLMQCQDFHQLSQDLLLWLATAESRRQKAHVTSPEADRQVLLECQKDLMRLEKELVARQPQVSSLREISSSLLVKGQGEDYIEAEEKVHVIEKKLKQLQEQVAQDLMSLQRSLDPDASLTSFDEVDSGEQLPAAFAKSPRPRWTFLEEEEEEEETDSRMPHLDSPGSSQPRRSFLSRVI
Assay: TIRF microscopy

fold recruitment to F-actin against mN2G^CH: > 115 fold
B1: kinesin heterotetramer composed of the KIF5B KHC and KLC2 (K5B2) (complex)
chain 1: MADLAECNIKVMCRFRPLNESEVNRGDKYIAKFQGEDTVVIASKPYAFDRVFQSSTSQEQVYNDCAKKIVKDVLEGYNGTIFAYGQTSSGKTHTMEGKLHDPEGMGIIPRIVQDIFNYIYSMDENLEFHIKVSYFEIYLDKIRDLLDVSKTNLSVHEDKNRVPYVKGCTERFVCSPDEVMDTIDEGKSNRHVAVTNMNEHSSRSHSIFLINVKQENTQTEQKLSGKLYLVDLAGSEKVSKTGAEGAVLDEAKNINKSLSALGNVISALAEGSTYVPYRDSKMTRILQDSLGGNCRTTIVICCSPSSYNESETKSTLLFGQRAKTIKNTVCVNVELTAEQWKKKYEKEKEKNKILRNTIQWLENELNRWRNGETVPIDEQFDKEKANLEAFTVDKDITLTNDKPATAIGVIGNFTDAERRKCEEEIAKLYKQLDDKDEEINQQSQLVEKLKTQMLDQEELLASTRRDQDNMQAELNRLQAENDASKEEVKEVLQALEELAVNYDQKSQEVEDKTKEYELLSDELNQKSATLASIDAELQKLKEMTNHQKKRAAEMMASLLKDLAEIGIAVGNNDVKQPEGTGMIDEEFTVARLYISKMKSEVKTMVKRCKQLESTQTESNKKMEENEKELAACQLRISQHEAKIKSLTEYLQNVEQKKRQLEESVDALSEELVQLRAQEKVHEMEKEHLNKVQTANEVKQAVEQQIQSHRETHQKQISSLRDEVEAKAKLITDLQDQNQKMMLEQERLRVEHEKLKATDQEKSRKLHELTVMQDRREQARQDLKGLEETVAKELQTLHNLRKLFVQDLATRVKKSAEIDSDDTGGSAAQKQKISFLENNLEQLTKVHKQLVRDNADLRCELPKLEKRLRATAERVKALESALKEAKENASRDRKRYQQEVDRIKEAVRSKNMARRGHSAQIAKPIRPGQHPAASPTHPSAIRGGGAFVQNSQPVAVRGGGGKQV
chain 2: MAMMVFPREEKLSQDEIVLGTKAVIQGLETLRGEHRALLAPLVAPEAGEAEPGSQERCILLRRSLEAIELGLGEAQVILALSSHLGAVESEKQKLRAQVRRLVQENQWLREELAGTQQKLQRSEQAVAQLEEEKQHLLFMSQIRKLDEDASPNEEKGDVPKDTLDDLFPNEDEQSPAPSPGGGDVSGQHGGYEIPARLRTLHNLVIQYASQGRYEVAVPLCKQALEDLEKTSGHDHPDVATMLNILALVYRDQNKYKEAAHLLNDALAIREKTLGKDHPAVAATLNNLAVLYGKRGKYKEAEPLCKRALEIREKVLGKFHPDVAKQLSNLALLCQNQGKAEEVEYYYRRALEIYATRLGPDDPNVAKTKNNLASCYLKQGKYQDAETLYKEILTRAHEKEFGSVNGDNKPIWMHAEEREESKDKRRDSAPYGEYGSWYKACKVDSPTVNTTLRSLGALYRRQGKLEAAHTLEDCASRNRKQGLDPASQTKVVELLKDGSGRRGDRRSSRDMAGGAGPRSESDLEDVGPTAEWNGDGSGSLRRSGSFGKLRDALRRSSEMLVKKLQGGTPQEPPNPRMKRASSLNFLNKSVEEPTQPGGTGLSDSRTLSSSSMDLSRRSSLVG

Source: paper PMC11844729 (Science Advances, 2025)
